Laboratory results published in patent publication US20260049134A1 (UNIVERSITY OF FLORIDA RESEARCH FOUNDATION, published 2026).
Changes are numbered by the printed parent chain. In names and notes the source's numbering stands.

T1: GARS-His (Sino Biological) (human, UniProt P41250 37-739, limits assumed)
T1 construct: Bought; also called GARS1; glycyl-tRNA synthetase; not shown: His tag of the bought protein
T1 sequence: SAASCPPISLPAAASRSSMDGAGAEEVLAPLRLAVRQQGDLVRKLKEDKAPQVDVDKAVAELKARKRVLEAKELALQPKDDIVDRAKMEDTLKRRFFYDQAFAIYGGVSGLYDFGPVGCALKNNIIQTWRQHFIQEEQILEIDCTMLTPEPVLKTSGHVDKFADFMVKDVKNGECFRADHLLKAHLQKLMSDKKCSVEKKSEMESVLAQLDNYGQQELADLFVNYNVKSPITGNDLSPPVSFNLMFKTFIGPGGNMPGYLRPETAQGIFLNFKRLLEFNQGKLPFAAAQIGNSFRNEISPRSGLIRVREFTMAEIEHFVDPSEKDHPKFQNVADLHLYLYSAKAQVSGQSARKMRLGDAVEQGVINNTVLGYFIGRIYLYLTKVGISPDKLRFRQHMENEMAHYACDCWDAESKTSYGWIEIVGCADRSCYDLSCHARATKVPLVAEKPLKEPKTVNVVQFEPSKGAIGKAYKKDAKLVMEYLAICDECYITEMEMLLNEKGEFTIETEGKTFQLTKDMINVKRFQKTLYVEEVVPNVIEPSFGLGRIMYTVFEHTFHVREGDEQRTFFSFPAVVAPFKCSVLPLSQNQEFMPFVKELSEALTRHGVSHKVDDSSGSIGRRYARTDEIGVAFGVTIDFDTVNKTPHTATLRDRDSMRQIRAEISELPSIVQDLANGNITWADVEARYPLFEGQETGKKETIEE

B1: HW-1 chimeric rabbit-human IgG1 LA/LA/PG (antibody, V domains shown)
VH: QSLEESGGGLFKPTDTLTLTCTASGFSLGSSYAISWVRQAPGKELEWIGTIDSGRAYYARWAKSRSTITRNTNENTVTLKMTSLTAADTATYFCARDLIPTYSQDIWGPGTLVTISS
VL: SFVLTQPASVQVNLGQTVSLTCTADTLSRRYASWYQQKPGQAPVLLIYRDTSRPSGVPDRFSGSSSGNTATLTISGAQAGDEADYYCATSDGSGNSYQYVFGGGTQLTVTS
notes: Fc-silenced (L234A/L235A/P329G) IgG1, lambda; Alexa Fluor 647-labeled in single-step flow cytometry; Prototype of cluster C-1
B2: HW-17 chimeric rabbit-human IgG1 LA/LA/PG (antibody, V domains shown)
VH: QSLGESRGRLVTPDETLTLTCTVSGIDLSSNAMSWVRQAPGEGLEWIGTINTGGRAYYASWAKGRFTISRTSTTVDLKMTSLTTEDTATYFCARERYSDGRAYDIWGPGTLVTISS
VL: B1 VL with R49T, T51S, S52N, V57I, S90D, N95S, S96I, S111G
notes: Fc-silenced (L234A/L235A/P329G) IgG1, lambda; Alexa Fluor 647-labeled in single-step flow cytometry; Cluster C-1
B3: TH9-0022 (antibody, human IgG1, kappa, L234A L235A, V domains shown)
VH: QSLEESGGRLVTPGTPLTLTCTVSGFSLSSYAMNWVRQAPGKGLEWIGIINSYGSTYYASWAKGRFTISKTSTTVDLKITSPTTEDTATYFCARVTYDSYGYGYAPYGMDLWGPGTLVTVSS
VL: LVMTQTPSSTSNAVGGTVTIKCQASQSIGNVLAWYQQKPGQPPKLLIYAASTLASGVPSRVGGSRSGTEYTLTISGVQREDAATYYCLGSDSDSDIAFGGGTELEILR
notes: also called TH9-022; negative control IgG1

What follows are binders tested against T2, PTP4A3 (assay: ELISA on coated protein).
T2 construct: also called His-PTP4A3 (R&D Systems)
T2 sequence (chain, as listed by the source limits assumed): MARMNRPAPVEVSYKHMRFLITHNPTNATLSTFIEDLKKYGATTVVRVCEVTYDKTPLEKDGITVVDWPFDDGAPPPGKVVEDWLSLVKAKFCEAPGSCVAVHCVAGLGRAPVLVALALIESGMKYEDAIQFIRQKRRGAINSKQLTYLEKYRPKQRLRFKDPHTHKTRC

| Binder | binding result |
| --- | --- |
| B1 | no binding (tested: 150 ng IgG1 per well) |
| B2 | no binding (tested: 150 ng IgG1 per well) |
| B3 | no binding (tested: 150 ng IgG1 per well) |

The binders below were run against T1, GARS-His (Sino Biological) (assay: ELISA on coated protein).

| Binder | binding result |
| --- | --- |
| B1 | no binding (tested: 150 ng IgG1 per well) |
| B2 | no binding (tested: 150 ng IgG1 per well) |
| B3 | no binding (tested: 150 ng IgG1 per well) |

These binders were tested against T3, PTPRG, endogenous in H929 multiple myeloma cells (human, UniProt P23470 20-1445) (assay: flow cytometry, IgG1 on H929 cells).
T3 construct: Native protein on H929 cells (flow cytometry, siRNA knockdown) and in H929 lysates (IP/MS); also called phosphatase receptor type γ
Procedure: Staining protocol. Cells were harvested (5×10⁴ cells per sample), washed once with phosphate-buffered saline (PBS) at RT, and a second time with ice-cold FACS buffer (PBS, 0.5% BSA, 2 mM EDTA, 0.1% NaN₃). Cells were stained in 50 μL of primary antibody for 30 min on ice, washed twice with 100 μL FACS buffer, stained with 50 μL of diluted secondary antibody, washed two more times in FACS, and then resuspended in 50 μL FACS buffer. Samples were acquired on an Accuri C6 Plus or a BD FACSCanto II flow cytometer (both from BD Biosciences). Data were analyzed using FlowJo version 10 software. Primary antibodies: Fab (10 μg/mL), IgG1 (0.1 to 50 μg/mL), or 25 μL polyclonal Fabs from periplasmic extracts. Polyclonal Fabs were produced by diluting bacterial stocks by a factor of 100 in autoinduction media and incubating overnight to induce expression as previously described. […] Viability stains: DAPI (Cell Signaling Technology) or SYTOX AADvanced Dead Cell Stain (Thermo Fisher Scientific). Labeling: The panel of chimeric rabbit/human IgG1s was labeled using the Alexa Fluor 647 Labeling Kit (Thermo Fisher Scientific, #A20173) to facilitate single-step staining. Competition: Unlabeled IgG1s were added at saturating concentrations of 60 μg/mL to block the target receptors, incubating on ice for 30 min, followed by the addition of an equal volume of the Alexa Fluor 647 labeled antibody at 2 μg/mL, and the mixture was incubated on ice for another 30 min.

T3 sequence (P23470 20-1445 limits assumed): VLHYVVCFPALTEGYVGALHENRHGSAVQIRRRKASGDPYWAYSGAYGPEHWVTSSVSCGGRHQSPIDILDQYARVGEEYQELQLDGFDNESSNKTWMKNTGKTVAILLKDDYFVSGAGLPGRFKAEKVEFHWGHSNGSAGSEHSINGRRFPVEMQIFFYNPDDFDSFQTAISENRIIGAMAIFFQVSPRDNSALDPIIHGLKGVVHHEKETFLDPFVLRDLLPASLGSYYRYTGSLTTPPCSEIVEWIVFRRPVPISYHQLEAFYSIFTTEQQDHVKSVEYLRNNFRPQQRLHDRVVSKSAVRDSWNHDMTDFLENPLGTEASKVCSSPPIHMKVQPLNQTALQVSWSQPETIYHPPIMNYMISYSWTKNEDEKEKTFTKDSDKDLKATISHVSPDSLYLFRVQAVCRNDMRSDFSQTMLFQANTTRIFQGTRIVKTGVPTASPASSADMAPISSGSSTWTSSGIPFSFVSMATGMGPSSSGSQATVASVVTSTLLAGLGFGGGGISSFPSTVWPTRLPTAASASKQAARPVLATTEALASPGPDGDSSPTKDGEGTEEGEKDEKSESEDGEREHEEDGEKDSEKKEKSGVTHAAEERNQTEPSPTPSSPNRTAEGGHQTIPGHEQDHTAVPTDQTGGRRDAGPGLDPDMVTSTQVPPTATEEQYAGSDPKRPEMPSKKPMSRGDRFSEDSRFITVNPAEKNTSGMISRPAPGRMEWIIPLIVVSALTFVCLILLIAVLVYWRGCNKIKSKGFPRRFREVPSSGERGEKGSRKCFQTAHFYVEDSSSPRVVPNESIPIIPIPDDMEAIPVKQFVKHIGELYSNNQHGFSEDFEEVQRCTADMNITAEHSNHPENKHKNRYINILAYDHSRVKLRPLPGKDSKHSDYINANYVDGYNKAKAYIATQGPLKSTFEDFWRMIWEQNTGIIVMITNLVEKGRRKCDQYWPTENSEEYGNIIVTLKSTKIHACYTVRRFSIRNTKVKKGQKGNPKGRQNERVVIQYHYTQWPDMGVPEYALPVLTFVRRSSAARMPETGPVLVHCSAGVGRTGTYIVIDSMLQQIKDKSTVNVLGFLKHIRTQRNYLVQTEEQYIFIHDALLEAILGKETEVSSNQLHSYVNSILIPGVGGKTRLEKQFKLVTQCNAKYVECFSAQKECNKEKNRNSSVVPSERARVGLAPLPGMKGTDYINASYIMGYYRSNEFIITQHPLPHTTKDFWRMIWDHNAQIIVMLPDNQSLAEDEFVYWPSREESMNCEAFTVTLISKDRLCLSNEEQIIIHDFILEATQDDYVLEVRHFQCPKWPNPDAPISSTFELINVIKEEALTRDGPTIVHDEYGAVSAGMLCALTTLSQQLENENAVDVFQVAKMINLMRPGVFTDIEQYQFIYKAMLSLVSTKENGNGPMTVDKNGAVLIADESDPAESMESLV

| Binder | antibody-bound positive cells (%) |
| --- | --- |
| B1 | 100 |
| B2 | 100 |
| B3 | 2.7 |
